Holding throughout (assay type): binding
In one assay the target is CML-AGEs-BSA (Bos taurus, UniProt P02769). The assay can be described thus: Specificity of PB-1 by competitive ELISA (Example 30). Particulars: A-peak-BSA or Glycer-AGEs-BSA immobilized, competitor 10 μg/mL, PB-1 0.05 μg/mL. The method, then: (§1) A-peak-BSA or Glycer-AGEs-BSA prepared into a concentration of 1 μg/mL with a coating solution (Example 13) was added at 100 μL/well to a 96-well microtiter plate (Costar) and immobilized overnight at 4° C.
Chain of CML-AGEs-BSA (P02769 25-607): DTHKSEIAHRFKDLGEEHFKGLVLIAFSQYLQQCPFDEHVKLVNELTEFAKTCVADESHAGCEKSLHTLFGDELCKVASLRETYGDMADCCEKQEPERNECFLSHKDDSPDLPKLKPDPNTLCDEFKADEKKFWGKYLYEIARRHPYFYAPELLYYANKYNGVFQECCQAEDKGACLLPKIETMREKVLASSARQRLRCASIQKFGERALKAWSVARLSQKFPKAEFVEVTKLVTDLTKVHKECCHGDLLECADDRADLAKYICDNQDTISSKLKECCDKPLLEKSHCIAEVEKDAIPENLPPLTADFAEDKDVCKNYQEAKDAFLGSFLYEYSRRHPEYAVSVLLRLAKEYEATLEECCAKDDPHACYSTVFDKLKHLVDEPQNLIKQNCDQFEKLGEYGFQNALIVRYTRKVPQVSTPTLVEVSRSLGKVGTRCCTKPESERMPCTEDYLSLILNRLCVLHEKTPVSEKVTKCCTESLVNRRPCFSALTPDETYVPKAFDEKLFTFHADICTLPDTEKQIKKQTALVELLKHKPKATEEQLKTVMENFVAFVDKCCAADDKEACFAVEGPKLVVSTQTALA
(§2) The plate was washed three times with PBS containing 0.05% (v/v) Tween 20 (PBS-T) and then blocked with PBS-T containing 0.5% (w/v) gelatin for 1 hour.
(§3) Bovine serum albumin (BSA), BSA containing AGEs derived from glucose (Glu-AGEs-BSA), BSA containing AGEs derived from fructose (Fru-AGEs-BSA), BSA containing AGEs derived from glycolaldehyde (Glycol-AGEs-BSA), BSA containing AGEs derived from glyceraldehyde (Glycer-AGEs-BSA), BSA containing NE-carboxyethyllysine (CEL-AGEs-BSA), BSA containing NE-carboxymethyllysine (CML-AGEs-BSA), BSA containing AGEs derived from glyoxal (GO-AGEs-BSA), BSA containing AGEs derived from methylglyoxal (MGO-AGEs-BSA), and A-peak-BSA diluted into 10 μg/mL with PBS-T containing 0.1% (w/v) gelatin were each added at 50 μL/well to the antigen-immobilized plate, and the PB-1 antibody diluted into 0.05 μg/mL with PBS-T containing 0.1% (w/v) gelatin was further added at 50 μL/well, stirred with a plate mixer, and then left standing at room temperature for 1 hour.
(§4) After washing, peroxidase-labeled anti-mouse IgG (H+L) polyclonal antibody, F(ab′)2 fragment (Kirkegaard & Perry Laboratories, Inc.) diluted into 0.05 μg/mL with PBS-T containing 0.1% (w/v) gelatin was added at 100 μL/well and left standing at room temperature for 1 hour.
(§5) After washing, ELISA POD substrate TMB kit (Nacalai Tesque, Inc.) was added at 100 μL/well and left standing at room temperature in the dark. Ten minutes later, color development was terminated by the addition of 2 N sulfuric acid (50 μL/well). Absorbance was measured at a dominant wavelength of 450 nm and a sub-wavelength of 650 nm with a microplate reader (Cytation 5, BioTek Instrument Inc.), and the absorbance at the sub-wavelength was subtracted from the absorbance at the dominant wavelength.
(§6) The ordinate of the graph depicts change in absorbance relative to that of control BSA defined as 1. When A-peak-BSA and Glycer-AGEs-BSA were immobilized, the novel monoclonal antibody PB-1 was also positive to Glycol-AGEs-BSA, Glycer-AGEs-BSA, and A-peak-BSA and negative to Glu-AGEs-BSA, Fru-AGEs-BSA, CEL-AGEs-BSA, CML-AGEs-BSA, GO-AGEs-BSA, and MGO-AGEs-BSA in terms of specificity.

The target in another assay is A-peak-BSA (Bos taurus, UniProt P02769). The assay is described as above. Particulars: A-peak-BSA or Glycer-AGEs-BSA immobilized, competitor 10 μg/mL, PB-1 0.05 μg/mL. As for the experimental part: as §1, §2, §3, §4, §5, §6
Chain of A-peak-BSA (P02769 25-607): as above
Another assay addresses Glycer-AGEs-BSA (Bos taurus, UniProt P02769). The description is as above. Particulars: A-peak-BSA or Glycer-AGEs-BSA immobilized, competitor 10 μg/mL, PB-1 0.05 μg/mL. The method, then: as §1, §2, §3, §4, §5, §6
The next assay addresses Fru-AGEs-BSA (Bos taurus, UniProt P02769). The assay is described as above. Particulars: A-peak-BSA or Glycer-AGEs-BSA immobilized, competitor 10 μg/mL, PB-1 0.05 μg/mL. The method, then: as §1, §2, §3, §4, §5, §6
In a further assay the target is CEL-AGEs-BSA (Bos taurus, UniProt P02769). Described as above. Particulars: A-peak-BSA or Glycer-AGEs-BSA immobilized, competitor 10 μg/mL, PB-1 0.05 μg/mL. The method, then: as §1, §2, §3, §4, §5, §6
Chain of CEL-AGEs-BSA (P02769 25-607): as above
Another assay concerns the target Glycol-AGEs-BSA (Bos taurus, UniProt P02769). The description is as above. Particulars: A-peak-BSA or Glycer-AGEs-BSA immobilized, competitor 10 μg/mL, PB-1 0.05 μg/mL. The method, then:
as §1, §2, §3, §4, §5, §6

The target in a further assay is Glu-AGEs-BSA (Bos taurus, UniProt P02769). Described as above. Particulars: A-peak-BSA or Glycer-AGEs-BSA immobilized, competitor 10 μg/mL, PB-1 0.05 μg/mL. As for the experimental part: as §1, §2, §3, §4, §5, §6
Chain of Glu-AGEs-BSA (P02769 25-607): as above
For the next assay, the target named is MGO-AGEs-BSA (Bos taurus, UniProt P02769). The description is as above. Particulars: A-peak-BSA or Glycer-AGEs-BSA immobilized, competitor 10 μg/mL, PB-1 0.05 μg/mL. The method, then: as §1, §2, §3, §4, §5, §6
Chain of MGO-AGEs-BSA (P02769 25-607): as above
A further assay concerns the target GO-AGEs-BSA (Bos taurus, UniProt P02769). The description is as above. Particulars: A-peak-BSA or Glycer-AGEs-BSA immobilized, competitor 10 μg/mL, PB-1 0.05 μg/mL. The method, then:
as §1, §2, §3, §4, §5, §6

The nature of assay [1]: Reactivity of PB-1 with known AGEs by competitive ELISA (Example 31). Particulars: immobilized A-peak-BSA. As for the experimental part: Competitive ELISA was conducted using the reagents described in Example 13. A solution of A-peak-BSA prepared into 1 μg/mL in a coating solution was added at 100 μL/well to a 96-well microtiter plate (Costar) and incubated overnight at 4° C.
Each well after the immobilization treatment was washed three times with a washing solution (300 μL), and a blocking solution (200 μL) was added thereto and left at room temperature for 1 hour.
GAL691 (prepared in Example 16), GLAP (prepared in Example 12), Lys-hydroxy-triosidine (prepared in Example 17), GA-pyridine (prepared in Example 28), GOLD (prepared in Example 29), and Z-Lys were each dissolved in a phosphate buffer solution (0.2 M, pH 7.4) to prepare a 100 mM solution. Then, a 10 mM solution was prepared by dilution 10-fold with a diluting solution containing BSA (1 mg/mL, FUJIFILM Wako Pure Chemical Corp.). Sample solutions of 4-fold dilution series of 0.04, 0.16, 0.63, and 2.5 mM were further prepared with a diluting solution containing a 10% (v/v) phosphate buffer solution and 1 mg/mL BSA. Ten-fold dilutions of a phosphate buffer solution with a diluting solution containing 1 mg/mL BSA were prepared as blank solutions containing no sample in the same way as above. A 0.1 μg/mL solution of the PB-1 antibody was prepared with a diluting solution containing 1 mg/mL BSA.
Each well treated with the blocking solution was washed three times with a washing solution (300 μL), and the sample solutions of 4-fold dilution series (50 μL each) and the PB-1 antibody dilution solution (50 μL) were added thereto, stirred with a plate mixer for 2 minutes, and then incubated at room temperature for 1 hour.
After the competitive reaction, each well was washed three times with a washing solution (300 μL), and peroxidase-labeled anti-mouse IgG (H+L) polyclonal antibody, F(ab′)2 fragment (Kirkegaard & Perry Laboratories, Inc.) diluted into 0.05 μg/mL with a diluting solution containing 1 mg/mL BSA was added at 100 μL/well and left standing at room temperature for 1 hour.
After washing three times with a washing solution (300 μL), a substrate solution (ELISA POD substrate TMB kit (Popular), Nacalai Tesque, Inc.) was added at 100 μL/well and incubated at room temperature for 10 minutes under light shielding. Then, color development was terminated by the addition of 2 N sulfuric acid (50 μL).
Absorbance was measured at a dominant wavelength of 450 nm and a sub-wavelength of 650 nm with a microplate reader (Cytation 5, BioTek Instrument Inc.), and the absorbance at the sub-wavelength was subtracted from the absorbance at the dominant wavelength. Change in the absorbance of GAL691, GLAP, Lys-hydroxy-triosidine, GA-pyridine, GOLD, and Z-Lys was indicated as relative values to the absorbance of the blank solution.

Chain of GO-AGEs-BSA (P02769 25-607): as above
Chain of Glycer-AGEs-BSA (P02769 25-607): as above
Chain of Fru-AGEs-BSA (P02769 25-607): as above
Chain of Glycol-AGEs-BSA (P02769 25-607): as above

B1: PB-1: mouse monoclonal antibody raised against A-peak-BSA; heavy-chain variable region SEQ ID NO 18, light-chain variable region SEQ ID NO 22 (antibody, listed as Mus musculus, V domains shown)
VH: EVRLQQSGPELVKPGTSVKISCKASGYSFTGYYMHWVKQSPVKSLEWIGRIIPYNGATSYNQNFKDKASLTVDKSSRTAYMDLHSLTSEDSAVYYCARSRYYGRAPYYFDYWGQGTTLTVSS
VL: DVVVTQTPLSLPVSLGDQASISCRSSQSIVHSNGNTYLEWYLQKPGQSPKLLIYKVSNRFSGVPDRISGSGSGTDFTLKISRVEAGDLGVYSCFQGSHVPFTFGSGTKLEIK
As to B1, in the assay with CML-AGEs-BSA, the “specificity: reactivity with CML-AGEs-BSA” value is “negative”. Moreover, the “specificity: reactivity with A-peak-BSA” value in the assay with A-peak-BSA was “positive”. Further, the “specificity: reactivity with Glycer-AGEs-BSA” value in the assay with Glycer-AGEs-BSA is “positive”. For the same molecule, the “specificity: reactivity with Fru-AGEs-BSA” value with Fru-AGEs-BSA is recorded as “negative”. For the same molecule, in the assay with CEL-AGEs-BSA, the “specificity: reactivity with CEL-AGEs-BSA” value was “negative”. The “specificity: reactivity with Glycol-AGEs-BSA” value with Glycol-AGEs-BSA was “positive”. In the assay with Glu-AGEs-BSA, the “specificity: reactivity with Glu-AGEs-BSA” value is listed as “negative”. Further, the “specificity: reactivity with MGO-AGEs-BSA” value with MGO-AGEs-BSA is listed as “negative”. The “specificity: reactivity with GO-AGEs-BSA” value in the assay with GO-AGEs-BSA is “negative”. For the same molecule, in [1], the “recognition of GA-pyridine” value is recorded as “does not recognize”, the “recognition of GLAP” value was “does not recognize”, the “recognition of GOLD” value is “does not recognize” and the “recognition of Lys-hydroxy-triosidine” value is reported as “does not recognize”.

The record behind these values is patent US12391751B2, “Antibody against advanced glycation end products and use thereof” (Bloom Technology Corporation, priority 2018, dated 2025).
